Laboratory results as given in the supplement of paper PMC9170038.

How the values were obtained:
Conditions in all cases: FMN input: 0 or 200 uM; Eterna round: R93 (includes R88 designs)
MS2 coat protein [1] = assay: apparent KD of MS2 coat protein, switch ON state; designed switch direction (-1 OFF switch, 1 ON switch): 1; higher = weaker reporter binding
Summary of the method: (§1)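 On-chip transcription from Illumina sequencing clusters produced the designed RNA switches. These were titrated with SNAP-549-labelled MS2 coat protein (twofold steps, 0.7 or 1.5 nM to 3 µM) in 100 mM Tris-HCl pH 7.5, 80 mM KCl, 4 mM MgCl2, with or without constant ligand. The apparent KD given is the per-design median of normalised cluster binding-curve fits.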

MS2 coat protein [2] = assay: apparent KD of MS2 coat protein, switch OFF state (with FMN for OFF switches, without FMN for ON switches); designed switch direction (-1 OFF switch, 1 ON switch): 1; higher = weaker reporter binding
Summary of the method: as §1

MS2 coat protein [3] = assay: apparent KD of MS2 coat protein, switch ON state; designed switch direction (-1 OFF switch, 1 ON switch): -1; higher = weaker reporter binding
Summary of the method: as §1

MS2 coat protein [4] = assay: apparent KD of MS2 coat protein, switch OFF state (with FMN for OFF switches, without FMN for ON switches); designed switch direction (-1 OFF switch, 1 ON switch): -1; higher = weaker reporter binding
Summary of the method: as §1

AAAAAAAAAACUCAGGAUAUAGAUCGUUGAACAUGAGGAUCACCCAUGUAGUGAAAAGCGAAAAACUAGAAGGGAGGAAAAAAAAA [SameState2-02]
apparent KD of MS2 coat protein (MS2 coat protein [1]): 13.3 nM
apparent KD of MS2 coat protein (MS2 coat protein [2]): 28.7 nM

AAAAAAAAAGUAGAGGAUAUCCGAGUGGUAACAUGAGGAUCACCCAUGUGAAGAAAGGAACAUGAGGAGAAGGCUACAAAAAAAAA [Normal (18/17)]
apparent KD of MS2 coat protein (MS2 coat protein [1]): 11.9 nM
apparent KD of MS2 coat protein (MS2 coat protein [2]): 30.4 nM

AAAAAAAAAGUAUAGGAUAUCCGAGUGGUAACAUGAGGAUCACCCAUGUGAAGAAAGGAAGAUGAGGAGAAGGAUACAAAAAAAAA [Mod of Mat of Nando]
apparent KD of MS2 coat protein (MS2 coat protein [1]): 27.9 nM
apparent KD of MS2 coat protein (MS2 coat protein [2]): 65.3 nM

AAAAAACAUGAGGAUCACCCAUGUAAAAAAAACACAGGAUAUCCAAAAAAAAAAAAAAAAGGAGAAGGGUGAAAAA [Nob - Jieux - Same State 1]
apparent KD of MS2 coat protein (MS2 coat protein [1]): 22 nM
apparent KD of MS2 coat protein (MS2 coat protein [2]): 48.3 nM

AAAAAACAUGAGGAUCACCCAUGUAAAAAAAACACAGGAUAUCCCUAAAAAAAAAAAAAAGGAGAAGGGUGAAAAA [Nob's Hobby 2 - Jieux - Same State 1]
apparent KD of MS2 coat protein (MS2 coat protein [1]): 21.3 nM
apparent KD of MS2 coat protein (MS2 coat protein [2]): 29.8 nM

AAAAAACAUGAGGAUCACCCAUGUAAUACAACAUCAGGAUAUUGGUUUUACUAUGUAUUACAAGAAGGGAUGAAAA [Same State 1.3b (Same State 1 - Omei 2 )]
apparent KD of MS2 coat protein (MS2 coat protein [1]): 181 nM
apparent KD of MS2 coat protein (MS2 coat protein [2]): 92.4 nM

AAAAAACAUGAGGAUCACCCAUGUAUAAAAUGGGAAGGAUAUACUAAGACGAAAGUCAUAGUAGAAGGUCCAAAAA [76%, Meechl, 12]
apparent KD of MS2 coat protein (MS2 coat protein [1]): 44.5 nM
apparent KD of MS2 coat protein (MS2 coat protein [2]): 193 nM

AAAAAACAUGAGGAUCACCCAUGUAUGAUAACAUCAGGAUAUUGGCUUGACUAUGUCUUACAAGAAGGGAUGAAAA [Same State 1.3e (Same State 1 - Omei 2 )]
apparent KD of MS2 coat protein (MS2 coat protein [1]): 28.3 nM
apparent KD of MS2 coat protein (MS2 coat protein [2]): 48.6 nM

AAAAAACAUGAGGAUCACCCAUGUCAAAAGACGUGAGGAUAUGUACAGACUUCGGUCUGUACAGAAGGCAUGAAAA [SS1 - 1056]
apparent KD of MS2 coat protein (MS2 coat protein [1]): 32 nM
apparent KD of MS2 coat protein (MS2 coat protein [2]): 136 nM

AAAAAACAUGAGGAUCACCCAUGUCCUCGGACGUGAGGAUAUGUACAGACUUCGGUCUGUACAGAAGGCACGUAAA [SS1 - 1042]
apparent KD of MS2 coat protein (MS2 coat protein [1]): 492 nM
apparent KD of MS2 coat protein (MS2 coat protein [2]): 402 nM

AAAAAACAUGAGGAUCACCCAUGUCGAAAGACAUGAGGAUAUGUACAGACUUCGGUCUGUACAGAAGGCAUGUAAA [SS1 - 1016]
apparent KD of MS2 coat protein (MS2 coat protein [1]): 104 nM
apparent KD of MS2 coat protein (MS2 coat protein [2]): 813 nM

AAAAAACAUGAGGAUCACCCAUGUCUUCGGACGUGAGGAUAUGUACAGACUUCGGUCUGUACAGAAGGCAUGAAAA [SS1 - 1058]
apparent KD of MS2 coat protein (MS2 coat protein [1]): 176 nM
apparent KD of MS2 coat protein (MS2 coat protein [2]): 381 nM

AAAAAACAUGAGGAUCACCCAUGUCUUUUGACAUGAGGAUAUGUACAGACUUCGGUCUGUACAGAAGGCAUGUAAA [SS1 - 1028]
apparent KD of MS2 coat protein (MS2 coat protein [1]): 31.1 nM
apparent KD of MS2 coat protein (MS2 coat protein [2]): 397 nM

AAAAAACAUGAGGAUCACCCAUGUGAGAACAAGGGAGGAUAUACGAAGACGAAAGUCGAAGUAGAAGGCCUAAAAA [Garnet 81]
apparent KD of MS2 coat protein (MS2 coat protein [1]): 23.3 nM
apparent KD of MS2 coat protein (MS2 coat protein [2]): 46.6 nM

AAAAAAUAAAAAAAGGAUAUAAAUCCUAGAACAUGAGGAUCACCCAUGUACUAGGAAAAAAUAAAAAAGAAGGAAAAAUAAAAAA [SS2: MS2 19]
apparent KD of MS2 coat protein (MS2 coat protein [1]): 18.1 nM
apparent KD of MS2 coat protein (MS2 coat protein [2]): 17.3 nM

AAAAAAUAAAAAAAGGAUAUAAUGCUACAGACAUGAGGAUCACCCAUGUAGGUAGCAUUAAUAAAAAAGAAGGAAAAAUAAAAAA [SS2: MS2 32]
apparent KD of MS2 coat protein (MS2 coat protein [1]): 9.09 nM
apparent KD of MS2 coat protein (MS2 coat protein [2]): 15.3 nM

AAAACACAUGAGGAUCACCCAUGUAGAAAUACGGGAGGAUAUGCGAAAACGAAAGACAAAGUAGAAGGCCUAAAAG [saturn 8]
apparent KD of MS2 coat protein (MS2 coat protein [1]): 35.9 nM
apparent KD of MS2 coat protein (MS2 coat protein [2]): 69.8 nM

AAAAGACAUGAGGAUCACCCAUGUAAAAACAUAGGAGGAUAUGUCUGGAAACCAGACUGGACAGAAGGCCUUUGUC [SS1 - 63]
apparent KD of MS2 coat protein (MS2 coat protein [1]): 24.8 nM
apparent KD of MS2 coat protein (MS2 coat protein [2]): 29.4 nM

AAAAGACAUGAGGAUCACCCAUGUAAAAACGUAGGAGGAUAUGUCGUGAAAAAAGACUUGACAGAAGGCCUGUGUC [SS1 - 35]
apparent KD of MS2 coat protein (MS2 coat protein [1]): 25.9 nM
apparent KD of MS2 coat protein (MS2 coat protein [2]): 39 nM

AAAAGACAUGAGGAUCACCCAUGUCAAGACGUAGGAGGAUAUGUCUUGAAAAAAGACUUGACAGAAGGCCUGUGUC [SS1 - 55]
apparent KD of MS2 coat protein (MS2 coat protein [1]): 14.9 nM
apparent KD of MS2 coat protein (MS2 coat protein [2]): 18.1 nM

AAAAGACAUGAGGAUCACCCAUGUCCUCGGACAUGAGGAUAUGUACAGACUUCGGUCUGUACAGAAGGCAUGAAAA [SS1 - 1064]
apparent KD of MS2 coat protein (MS2 coat protein [1]): 52 nM
apparent KD of MS2 coat protein (MS2 coat protein [2]): 233 nM

AAAAGACAUGAGGAUCACCCAUGUGAAAACGUAGGAGGAUAUGUCGUGAAAAAAGACUUGACAGAAGGCCUGUGUC [SS1 - 34]
apparent KD of MS2 coat protein (MS2 coat protein [1]): 28.1 nM
apparent KD of MS2 coat protein (MS2 coat protein [2]): 63.5 nM

UAACAGUCAGGAUAUGGACAAUACAAUACAAACAAAUAAAGCCAGAAGGGACAUGAGGAUCACCCAUGUAAACA [Simple]
apparent KD of MS2 coat protein (MS2 coat protein [3]): 41.6 nM
apparent KD of MS2 coat protein (MS2 coat protein [4]): 23 nM

UAAGGACAUGAGGAUCACCCAUGUGAGGAUAUGCUCUACGAACGUUUAUUUAUGAGAAGCAGAAGGCACAUUUU [try 2]
apparent KD of MS2 coat protein (MS2 coat protein [3]): 50.4 nM
apparent KD of MS2 coat protein (MS2 coat protein [4]): 127 nM

UAUAGACAUGAGGAUCACCCAUGUGAGGAUAUGAGUGACUACAGGACAUCACGUACAAUCAGAAGGCACAGAAA [JR_Exc001_Sub016]
apparent KD of MS2 coat protein (MS2 coat protein [3]): 47.9 nM
apparent KD of MS2 coat protein (MS2 coat protein [4]): 60.9 nM

UAUAUACAUGAGGAUCACCCAUGUCAGGAUAUGCGCCCAGAAUAUACAUAUGAUACAAGCAGAAGGGACACUAA [JR_Exc001_Sub205]
apparent KD of MS2 coat protein (MS2 coat protein [3]): 55.3 nM
apparent KD of MS2 coat protein (MS2 coat protein [4]): 49.3 nM

UCCACACAUGAGGAUCACCCAUGUGAGGAUAUCUAGAAAACCUCAUGUAAAAAAAUCUAGAGAAGGCACAUGAA [Design 92: Pseudoknot B]
apparent KD of MS2 coat protein (MS2 coat protein [3]): 24 nM
apparent KD of MS2 coat protein (MS2 coat protein [4]): 25 nM

UCCAGACAUGAGGAUCACCCAUGUCAGGAUAUCUAGAAAACCUCAUGUAAAAAAAACUAGAGAAGGGAUAUGGA [Design 95: Pseudoknot E]
apparent KD of MS2 coat protein (MS2 coat protein [3]): 15.2 nM
apparent KD of MS2 coat protein (MS2 coat protein [4]): 14.8 nM

UCCGGACAUGAGGAUCACCCAUGUGAGGAUAUAUAAAGUGGGACUAGAAACAGUCCCAAUAGAAGGCACAUGAC [Esarbiorar]
apparent KD of MS2 coat protein (MS2 coat protein [3]): 22 nM
apparent KD of MS2 coat protein (MS2 coat protein [4]): 17.6 nM

UCCGGACAUGAGGAUCACCCAUGUGAGGAUAUAUAAAGUGGGACUGGAAACAGGCCCAAUAGAAGGCACAUGAC [Atatesin]
apparent KD of MS2 coat protein (MS2 coat protein [3]): 22.6 nM
apparent KD of MS2 coat protein (MS2 coat protein [4]): 21.9 nM

UCCUCACAUGAGGAUCACCCAUGUUAGGAUAUGCCCGGCGGGUUCUGACCUGCCUAAAGCAGAAGGAACGUGCG [Cexequge]
apparent KD of MS2 coat protein (MS2 coat protein [3]): 16.6 nM
apparent KD of MS2 coat protein (MS2 coat protein [4]): 70.1 nM

UGCAUGUAAGGAUAUGCAACCGGCGCUCAUUAACCGGUCAAGCAGAAGGUACAUGAGGAUCACCCAUGUGUCCG [Esteleus]
apparent KD of MS2 coat protein (MS2 coat protein [3]): 17.2 nM
apparent KD of MS2 coat protein (MS2 coat protein [4]): 52.2 nM

UGGGAGUCAGGAUAUACGAACAUGUCGCCAGAUGUCAAGGUACAUGAGGAUCACCCAUGUAGAAGGGACGAGAA [salish99-Ex2-28]
apparent KD of MS2 coat protein (MS2 coat protein [3]): 53.1 nM
apparent KD of MS2 coat protein (MS2 coat protein [4]): 34.1 nM

UGUUGGCGAGGAUAUACAUGAGGAUCACCCAUGUGAGAGAAAAAAGUGAGAAAGAAAAGUAGAAGGCGCUGACA [salish99-ex3-07]
apparent KD of MS2 coat protein (MS2 coat protein [3]): 46.2 nM
apparent KD of MS2 coat protein (MS2 coat protein [4]): 282 nM

UUAACACAUGAGGAUCACCCAUGUUAGGAUAUUGUGGUAGGAACAACUGGGAAACGCACAAGAAGGGACACACA [EX1 Malc#18 Mod 18 - Jieux - Exclusion 1]
apparent KD of MS2 coat protein (MS2 coat protein [3]): 29.2 nM
apparent KD of MS2 coat protein (MS2 coat protein [4]): 26.6 nM

UUAGAACAUGAGGAUCACCCAUGUGAGGAUAUGCAAUACUAAAAAAAAGAUAAUUAUAGCAGAAGGCACGUAGU [JR_EXc001_Sub805]
apparent KD of MS2 coat protein (MS2 coat protein [3]): 35.1 nM
apparent KD of MS2 coat protein (MS2 coat protein [4]): 41.4 nM

UUCAAGUGAGGAUAUACGAAUAGUAAGUAAGUAUAACAGACGUAGAAGGCACAUGAGGAUCACCCAUGUAAAUA [JR_Exc004_Sub304]
apparent KD of MS2 coat protein (MS2 coat protein [3]): 25.8 nM
apparent KD of MS2 coat protein (MS2 coat protein [4]): 22.5 nM

UUCGCACAUGAGGAUCACCCAUGUCAGGAUAUCGUGGCGGGAAAAACCGGGAAACGCACGAGAAGGGACACACA [EX1 Malc#18 Mod 15 - Jieux - Exclusion 1]
apparent KD of MS2 coat protein (MS2 coat protein [3]): 47.3 nM
apparent KD of MS2 coat protein (MS2 coat protein [4]): 51.5 nM

UUUAUGUGAGGAUAUGUACAGAAAAAAAAGGGUGUAACUGUACAGAAGGCACAUGAGGAUCACCCAUGUGAAUA [EX4 381: S S Pseudoknot 6]
apparent KD of MS2 coat protein (MS2 coat protein [3]): 113 nM
apparent KD of MS2 coat protein (MS2 coat protein [4]): 216 nM
